Our source for the unrecovered fraction five minutes after photobleaching values is PMC3177959.

The assay concerns the target M3 muscarinic acetylcholine receptor labeled at its N terminus with ECFP (human) (UniProt P20309). The assay is described as follows: FRAP of the mobile partner with the other partner immobilised.
Sequence of UniProt P20309 (P20309 whole entry): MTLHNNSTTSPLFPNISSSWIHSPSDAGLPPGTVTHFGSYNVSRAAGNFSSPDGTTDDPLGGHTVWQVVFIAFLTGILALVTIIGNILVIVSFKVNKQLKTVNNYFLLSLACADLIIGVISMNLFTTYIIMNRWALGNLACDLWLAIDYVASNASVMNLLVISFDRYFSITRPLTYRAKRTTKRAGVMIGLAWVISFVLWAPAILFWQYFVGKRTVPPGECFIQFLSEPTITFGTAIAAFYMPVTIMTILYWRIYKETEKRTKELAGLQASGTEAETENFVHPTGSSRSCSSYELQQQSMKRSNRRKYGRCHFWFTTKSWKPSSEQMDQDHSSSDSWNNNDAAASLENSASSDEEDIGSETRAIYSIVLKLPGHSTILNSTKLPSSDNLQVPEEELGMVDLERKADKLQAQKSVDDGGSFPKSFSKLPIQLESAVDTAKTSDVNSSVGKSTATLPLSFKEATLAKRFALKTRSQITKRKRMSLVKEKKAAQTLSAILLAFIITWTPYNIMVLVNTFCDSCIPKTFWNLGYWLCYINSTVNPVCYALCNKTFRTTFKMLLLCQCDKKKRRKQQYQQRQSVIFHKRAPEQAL

“Gq heterotrimer: venus-labeled Gαq with unlabeled Gβ1 and Gγ2 (from UniProt P21279;P62873;P59768) (complex)” had an unrecovered fraction five minutes after photobleaching of 0.23.
